The results in this text go back to PMC12974149.

The assay addresses Rabbit skeletal actin, filamentous (F-actin) (rabbit) (UniProt P68135). As to the kind of experiment: fluorescence microscopy of purified drebrin on actin filaments.

As to “mouse drebrin isoform E (natural protein)”, the fraction of actin filaments heavily (>50%) decorated by drebrin stood at 16%.
